T1: LptC construct lacking the 23 residues long N-terminal transmembrane domain (E. coli), P0ADV9
T1 chain: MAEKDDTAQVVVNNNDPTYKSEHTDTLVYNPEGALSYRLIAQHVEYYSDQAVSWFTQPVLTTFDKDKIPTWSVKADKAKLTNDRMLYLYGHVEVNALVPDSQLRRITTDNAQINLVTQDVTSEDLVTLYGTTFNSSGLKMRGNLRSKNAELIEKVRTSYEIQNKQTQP

B1: LptAm (monomeric E. coli LptA mutant, LptA Δ160-185) (domain or fragment, UniProt P0ADV1 28-159, looked up)
chain: VTGDTDQPIHIESDQQSLDMQGNVVTFTGNVIVTQGTIKINADKVVVTRPGGEQGKEVIDGYGKPATFYQMQDNGKPVEGHASQMHYELAKDFVVLTGNAYLQQVDSNIKGDKITYLVKEQKMQAFSDKGKR
notes: LptA, E. coli, residues 28-159; lacks the last C-terminal β-strand (Δ160-185); For NMR the protein was isotope-labelled (2H, 13C, 15N) or unlabelled; the purified protein is 28-159; also called monomeric LptA; C-terminally truncated LptA; source: E. coli BL21(DE3), pET21b, purified (HiTrap, S75 SEC)
B2: LptC construct lacking the 23 residues long N-terminal transmembrane domain (domain or fragment, E. coli, UniProt P0ADV9 24-191, looked up)
chain: MAEKDDTAQVVVNNNDPTYKSEHTDTLVYNPEGALSYRLIAQHVEYYSDQAVSWFTQPVLTTFDKDKIPTWSVKADKAKLTNDRMLYLYGHVEVNALVPDSQLRRITTDNAQINLVTQDVTSEDLVTLYGTTFNSSGLKMRGNLRSKNAELIEKVRTSYEIQNKQTQP
notes: LptC, E. coli, lacking the first 23 residues (transmembrane domain); For NMR the protein was isotope-labelled (2H, 13C, 15N, or AILV methyl-labelled) or unlabelled; also called LptC dimer; source: E. coli M15 [prep4], pQESH plasmid, purified (HiTrap, S75 SEC)

Assays:
[1] = biological target: B2; test: SAXS; beamline BM29 (ESRF), 20 °C, NMR buffer with 0.5% w/v sucrose; LptAm 1.6 and 2.4 mg/ml, LptC 1, 2 and 3 mg/ml, LptAm:LptC 1:1 molar ratio at 3.6 and 5.4 mg/ml; extrapolated to zero dilution; conditions: both partners purified
[2] = biological target: B1; test: SEC-MALS; 40 µl injected on Superdex S200 (10/300GL) in buffer B (50 mM sodium phosphate, 150 mM NaCl, pH 8) at 25 °C; proteins alone and LptC-LptAm mixtures (also with a two-times molar excess of LptAm); protein conjugate two-component analysis for the complex; conditions: both partners purified
[3] = biological target: B1; test: NMR titration; isotope-labelled LptC or LptAm with the unlabelled partner (1.2 molar equivalents); 2D BEST-TROSY / methyl spectra; 35 °C, buffer B with 5% D2O; submillimolar concentrations; conditions: both partners purified
[4] = biological target: T1, LptC construct lacking the 23 residues …; test: SEC-MALS; 40 µl injected on Superdex S200 (10/300GL) in buffer B (50 mM sodium phosphate, 150 mM NaCl, pH 8) at 25 °C; proteins alone and LptC-LptAm mixtures (also with a two-times molar excess of LptAm); protein conjugate two-component analysis for the complex; conditions: remark: other sources report otherwise
[5] = biological target: T1, LptC construct lacking the 23 residues …; test: SAXS; beamline BM29 (ESRF), 20 °C, NMR buffer with 0.5% w/v sucrose; LptAm 1.6 and 2.4 mg/ml, LptC 1, 2 and 3 mg/ml, LptAm:LptC 1:1 molar ratio at 3.6 and 5.4 mg/ml; extrapolated to zero dilution; conditions: remark: other sources report otherwise

binding result [1]	stoichiometry N [2]	stoichiometry N [3]	stoichiometry N [4]	stoichiometry N [5]	Binder
binds					B1
	2 LptC:LptAm (2:1)	~1 LptC:LptAm molar ratio	2	2	B2

— publication PMC5575297, “Interaction of lipopolysaccharides at intermolecular sites of the periplasmic Lpt transport assembly” (Scientific Reports, 2017)
